Assay: soluble on expression in E. coli; label from the status in PepcDB or PDB records

Row | Sequence | soluble on expression in E. coli
1 | MAHHHHHHMVELTEEEAMNFLNIALGEAEKSLQKELKEMPIFCLLINEEKKIISSSYNYTNESKNGSRHSELIAIDKYIYDGNYEQMKNLNLIKCYNNNENSIEKSIQDYFVSLDEKKNSELKINNYENINDKYMNEKYNKIQERINNLKKCCIVVTCEPCIMCVYALKLIGIKNIYFCCLNERFGGCGSVLSLHKKYEDINVHYIEHPECSEKSINLMKAFYKAGNPSAPEEKRKRPIS | not soluble
2 | GASIRWEWRAARFADYLLQTRLKSRNNGLRVVYSITINLVPNHLDKRAHKYLGMVRQASRKYGVDESLILAIMQTESSFNPYAVSHADAMGLMQVVQHSAGRDVFRSQGKSGLPSRSYLFDPANNIDTGTAYLAMLNNVYLAGIDNPTSRRYAVITAYNGGAGSVLRVFSSDKVQAANIINSMAPGDVYQTLTTRHPSAESRRYLYKVNTAQKSYRRK | not soluble
3 | MAHHHHHHMDRQVINLEEILPFSYTRDVELVPMYCFEVKKEVAKDALNIMKDYINNQLYDKYNHLKRCRKCTDSVQILIGACNHIPFELSQKLIEKMKQENNNDEFNDIIITKIMVSKYAPITRKQYIEWSTYWPLYFRKPDKDILILTKEEINKYIKLLYISIDIGKQFGTCNSGCIITYNDEIIASSGDNIKNHPLHHAPMLAIEQVSYKLRHIWLNKQTEKNNLQKKMKIIHKQQINNRDSLNDHKHENNKSNHNILIDHIPNDQYLCTNFFAFLSHEPCYMCAMALLHSRIKCVIFDKENKNNGALSSQEKLHCIKNLNHHFKVFKTIRG | not soluble
4 | MGSDKIHHHHHHMSISLNTCILILKEHHLLKSSAVQDTVATKMDYVSYDSRDIQTNTLFFCKGAGFRPTYLSMAKSNGANCYVAEQPYPEGKGMHALIVRDVSKAMALLSAAFFRFPQDDLYVVAFTGTKGKTTSAYFLKGMLDQANGGRTALISSVNDVVGPKPEDSFKSSLTTPESLDLFRDMRTAVDNGMTHLVMEVSSQAYKKNRVFGLTYDLGFFLNISPDHIGPNEHPNFADYLHCKLQLMVNSRKCIINAETANFNEVYAAATTTTNPDSIYLFAREDFENPDLDVPIDFRFASQELDMKETRFKLFCATDKAKKLPINGDYTLKMLGDFNESNGTAAIIGAGLAGLNHDQCAKGIRNVTIPGRMQTERTKEHGMVVVDYAHNKASMMALMRFMQNEFNDPKIIVVVGAPGDKGVSRRPGFSESLSAYADKAFLTTDDPGFEDPKSIAEEIDAGIDHSKCDVTIELDRKKAIHDAIASAGPDDVVLICGKGADAFQKIRGVDTPYPSDIVVAQQVINELEGQDEHFRK | not soluble
5 | MIKLAPAGLKDDIEMRKVYAGFIAGQIEAGSPIIALEADLMSSMAMDSVARDYPQHVINCGIMEANVIGTAAGLALTGRKPFVHTFTAFASRRCFDQLFMALDYQRNNVKVIASDAGVTACHNGGTHMSFEDMGIVRGLAHSVVLEVTDAVMFADILRQLMDLDGFYWLRTIRKQARSIYAPGSTFTIGKGNVLREGDDITLIANGIMVAEALEAARQLEQEGVSAAVIDMFTLKPIDRMLVKNYAEKTRRIVTCENHSIHNGLGSAVAEVLVENCPVPMRRVGVKERYGQVGTQDFLQKEYGLTAEAIVEAAKSLL | not soluble
6 | MASSLNEDPEGSRITYVKGDLFACPKTDSLAHCISEDCRMGAGIAVLFKKKFGGVQELLNQQKKSGEVAVLKRDGRYIYYLDWMWSLEHHHHHH | not soluble
7 | MAHHHHHHMIAATQVPGLNEISRQAASGSPFPQVLPPRYPANKVSTAGLQSSNHGAAQLVHDVNNVAAEIHHPLITAADYSDRRQLLSHITVLSGQLQRAQLLLRNTPSCVVSDADIARFDPLIAQAEVERLDSALAQLSLLHEMERARSGSLEAEQQQLREERNQLVARVDTLESRSVALETENVQLRSALEVAQQELQVLRVGESALGNKLHAIEQLQRDGGRFDGVNVVIAPPRAVCSTAAKELQLQENIQRLSLLLDMMMDPMYIAFDAGVVWITETEHHRAGGQVCGAALSNAPHDSEELTTTVGGNSPLGNASDATLPQDVVANPPHVVASEVDISLLQQQQQELCRQLDAVRESCRVAERNQERLQDLLLEEQRRTEAMAQEHCKQLQCVHDRVVHERRQVVESLVAEVEEKMRNAFRDGRLYQKQLDERLIHRRSSSTFQSRSGHSSARSTPFASRHKAFGGNGTCKGDGDANSSRSARSPILGG | not soluble
8 | QGFSQEKYAHNALNRRGFIELKSQARGQISTGGQVLAESYQDEEGFYQRRYVTNPAIYGPIEGYLSDIYGASGMESNLNGVLSGTDSSVSVRRWTDELLGRKHSGANVELTLLPQVQEVAYNQMANAGYEGAVVAIKPSTGEILAMASTPSYDPSAIVNPDTAEQTWAALNADPGNPLLNHATQETLPPGSTFK | not soluble
